± gives the standard deviation of the averaged measurements.
Tested on: ATP
Experiment: switch fluorescence ratio, 500 uM ATP over buffer (Cy3 cluster intensity, sum of 5 cycles each) (fold (ratio)); higher = stronger signal-on switching upon ATP binding; sequences stand for … in TCGTCGGCAGCGTCAGATGTGTATAAGAGACAGTTTTTTTTTTTTTTTTTTTTTTTTT…TC
Settings: aptamer strand: ATP DNA aptamer (quencher-CACCTGGGGGAGTATTGCGGAGGAAGG + anchor), 100 nM annealed; ATP concentration: 500 uM
In short: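 The quencher-labelled ATP aptamer, at 100 nM, was annealed to Cy3-labelled switching-strand clusters on a modified Illumina MiSeq flow-cell. The clusters were imaged in selection buffer, then after 15 min with 500 uM ATP at 22 °C, and this buffer/ATP cycle ran five times with NaOH stripping and re-annealing between runs. Per-cluster fluorescence ratios, summed target-cycle over summed buffer-cycle Cy3 intensity, were averaged per switch-domain sequence. Clusters outside 100-1000 RFU were excluded.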
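Note: ATP exposure 15 min at 22 °C before imaging.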

Sequence | switch fluorescence ratio
CATTCTATGC | 1.03 ± 0.011
CGCTTCATTA | 1.01 ± 0.063
GGGTTGGAGG | 0.995 ± 0.021
AGGAGAAGAC | 1.03 ± 0.049
TCTAACTTTT | 1.01 ± 0.033
TTGGGGGTCC | 1.02 ± 0.038
GCGCTGTGTG | 1 ± 0.041
TAAAAGCCTT | 1.06 ± 0.043
TTTGTACGCA | 1.71 ± 1
TAGTACTGCT | 1.02 ± 0.015
AGCCCTCGTT | 1 ± 0.043
AACTTGAGAA | 1.01 ± 0.012
AAGTCGCGTT | 0.991 ± 0.0024
GTAGTCGGGT | 1.006 ± 0.0044
TATGGAATGG | 0.997 ± 0.046
GAATGGGTTA | 0.965 ± 0.018
GCGCTGGTTA | 0.9941 ± 0.0027
TTTTTAAGCG | 1 ± 0.023
CTAATTTAGG | 1 ± 0.018
GAAGAAAGCG | 1.007 ± 0.0094
GAAGTAGTAA | 1.02 ± 0.03
CCGGCTTACG | 1.2 ± 0.1
CAGTTAAAGG | 1.01 ± 0.017
GGTGTTGTGG | 0.9911 ± 0.0093
TTTACAGGTT | 1.11 ± 0.1

Sequence | switch fluorescence ratio
CCAATGAGGT | 0.9962 ± 0.0084
TGCGTAGTGC | 1.09 ± 0.036
TGCGATTGGT | 1.01 ± 0.012
AGTTGTTTTG | 0.998 ± 0.015
TGGGATTTTC | 1.03 ± 0.067
GGCCCTGCAG | 1.02 ± 0.042
GATTCTTTAC | 1.03 ± 0.029
TCCAGGGTCA | 1.01 ± 0.025
TCAGACTGCG | 0.999 ± 0.023
GGGGCGTGGG | 0.963 ± 0.042
TGGAAGTTAG | 0.964 ± 0.029
TTTTCACTTT | 1.01 ± 0.046
GTAATGGCGG | 1.013 ± 0.0019
GAAGGGGGAG | 0.996 ± 0.028
GATAGAAAGC | 0.9852 ± 0.0027
TTGTTTTGCA | 0.971 ± 0.018
ACGATGATGT | 1.0279 ± 0.00059
GAATTGGGCT | 0.9679 ± 0.0032
GTAATTGGTG | 0.992 ± 0.014
CTCATAGGGA | 0.983 ± 0.024
GGGCGGCCTA | 0.999 ± 0.021
TAGTATTACC | 0.9943 ± 0.0081
CGTAGTTTGT | 1.03 ± 0.076
GGGGGATTCC | 1.02 ± 0.017
ACCTAGTAAA | 0.987 ± 0.025

Sequence | switch fluorescence ratio
CTGTATAACG | 0.998 ± 0.031
AGAATGGGAA | 1 ± 0.019
TATGTTGGTG | 0.987 ± 0.018
TAAATGGAA | 1 ± 0.024
TGTCGTAGGA | 1.006 ± 0.0035
TTTGGCGTTT | 1.01 ± 0.024
CCGGTTTGGG | 0.988 ± 0.042
GATAGACTTA | 0.949 ± 0.03
TCGGGTTTAG | 1.04 ± 0.04
TCGTCGGGGC | 1.03 ± 0.029
AAATAATGT | 1.02 ± 0.016
GGACACTACC | 1.25 ± 0.036
CGTGGGGGCG | 1.01 ± 0.03
CATTCGATGC | 1.265 ± 0.0044
CGGAGTCGCC | 1.01 ± 0.012
CCGGACTATC | 2.4 ± 0.086
ACAACGAGGT | 1.015 ± 0.0093
AGAAGCGTGG | 1.01 ± 0.025
CATAGTGTTT | 1.01 ± 0.012
CGGAGAAAGG | 1.03 ± 0.069
GTTTGGAGTG | 1 ± 0.041
ATCATAGGAT | 1.0329 ± 0.00082
ATAACACGGC | 1.05 ± 0.1
ACCACGGGGT | 1.02 ± 0.038
CGTTGGTTTT | 1.04 ± 0.02

Sequence | switch fluorescence ratio
TATATCTTTT | 1.04 ± 0.026
GGGTTGTGTT | 0.978 ± 0.013
TGAGTGTAGA | 1.07 ± 0.023
TGGGTAGGTT | 1.06 ± 0.035
CTGATGTGGG | 0.964 ± 0.015
TTTATGGATC | 1.01 ± 0.05
TTTAGTAATA | 1.03 ± 0.021
CCGCGGGTTT | 1.08 ± 0.075
GTTTTGGCTT | 0.983 ± 0.021
AAATTGTAAT | 1.02 ± 0.041
GATAGGAAAC | 1.12 ± 0.12
GGTTGATTTA | 1.036 ± 0.0037
CTTTGTCTGA | 1.022 ± 0.0085
AGGTATAAGC | 0.994 ± 0.043
TATGAATCCG | 1 ± 0.063
GAGAGGGATG | 1.01 ± 0.043
TTACAGCTGA | 1.01 ± 0.016
TACGGGGGAC | 1.07 ± 0.047
GAGTTGTCAA | 0.972 ± 0.033
TCGGATTAGT | 1 ± 0.025
TTATCAATGG | 1.01 ± 0.078
AGCCTTAGGG | 1 ± 0.02
TAGTAGGCCA | 1.01 ± 0.055
GCCAATACCA | 1.22 ± 0.013
CCTGTAAGCT | 1.3 ± 0.077

Sequence | switch fluorescence ratio
AGGGGATGAA | 1.04 ± 0.027
TTCATTCGTT | 1.05 ± 0.046
CTTCTGTGGC | 1.071 ± 0.0073
ATCGAAGGGG | 0.981 ± 0.065
TCGCGGGTGG | 1.03 ± 0.021
CTTTCTCAA | 1.32 ± 0.44
GAAGAAGGCT | 0.89 ± 0.078
GTAGGTCGAC | 1.01 ± 0.012
CAAAAAGTTG | 1.02 ± 0.093
GCGCATCATT | 0.986 ± 0.025
ATCAACTTAT | 1.02 ± 0.044
CAGGCGGCCC | 1.019 ± 0.01
ACGAGGCCAG | 1.23 ± 0.032
TAAGCGGTTG | 0.989 ± 0.016
ATATTGCGTT | 1.01 ± 0.02
GACGGGATTT | 1.03 ± 0.03
GAGGTTGACA | 1.03 ± 0.017
ATTCATTCAG | 0.9865 ± 0.0047
ACTGCTACGA | 1.36 ± 0.018
TGTAATTGCT | 0.999 ± 0.022
ACATGTGGAT | 0.996 ± 0.05
GATAAATTTT | 0.974 ± 0.023
CTGGATGTTA | 0.999 ± 0.024
AATTTTAAAT | 1.09 ± 0.21
GGAAGTCGGT | 0.968 ± 0.022

Sequence | switch fluorescence ratio
GCGGTTTCGT | 0.983 ± 0.012
CGGTTTTATA | 0.9619 ± 0.0088
GGGATAAAGA | 1.001 ± 0.003
AAGTGTTGTC | 1.1 ± 0.033
AACCACGTTA | 1.09 ± 0.053
TTTTACAGCC | 1.052 ± 0.0051
CCATAGGTCC | 1.017 ± 0.0071
ATAGAGTGCG | 0.957 ± 0.024
GGGTCCGAGA | 1.31 ± 0.4
TCTGTTTTTG | 1.01 ± 0.063
TTTATAAAGG | 1.01 ± 0.034
GGTGGGTTTG | 1.03 ± 0.024
GGGGAGTATT | 0.971 ± 0.015
AAAGGATAGC | 1.017 ± 0.0044
CTGTGCAACT | 1.0489 ± 0.00058
CTCGGATTGG | 1 ± 0.015
CGGTGAGGCT | 0.984 ± 0.017
ATCGGAATGG | 1.05 ± 0.024
TACCGTTTTT | 1.01 ± 0.045
AGGGTTAGGT | 1.003 ± 0.0028
GGGTGGGGAC | 0.975 ± 0.015
CTGTTTGCCT | 0.983 ± 0.021
ATGGTGGGT | 0.978 ± 0.033
GTAATAAATT | 1.02 ± 0.092
AGGGCGTCTC | 0.981 ± 0.043

Sequence | switch fluorescence ratio
AGCCCGTCGT | 0.99 ± 0.022
GACGATGTCT | 1.0078 ± 0.00071
CTGTTTTGTG | 1.01 ± 0.049
GTTATTATGG | 1.013 ± 0.0084
TCTAATGGGT | 0.982 ± 0.017
GCTAAAGTTC | 1.01 ± 0.0014
TCTGGGAAGG | 1.01 ± 0.042
TGAGATGAAG | 1.005 ± 0.0085
ATTGGACTAC | 1.07 ± 0.03
TGGGGGCGTT | 1 ± 0.034
GTTGGGGGTC | 0.995 ± 0.011
GGTGAGATTA | 0.9804 ± 0.0073
TGCTTATCTG | 0.99 ± 0.032
GAGAGATTGT | 1.005 ± 0.0086
TGATCTGTCG | 0.9814 ± 0.0086
AAAACCTCAC | 1.56 ± 0.13
TCATAAATTT | 1.01 ± 0.018
TTCAGATGGG | 0.972 ± 0.01
TGTAGTATGT | 1 ± 0.012
TTAAACGAGT | 0.997 ± 0.017
CAAGGGGGCG | 0.994 ± 0.048
TTCTGGATCT | 0.996 ± 0.044
GTTGCGAAGG | 0.983 ± 0.02
GCCAATAGTT | 1.046 ± 0.0073
CAAGGGAAGT | 0.978 ± 0.017

Sequence | switch fluorescence ratio
GTGGTTCCCG | 1 ± 0.0099
TACGGGGGTG | 1.01 ± 0.042
CCTGGGGATA | 1.04 ± 0.024
TTTTATCTTT | 1 ± 0.015
AGGGCTATTT | 0.973 ± 0.01
GAATAAGAGA | 0.974 ± 0.036
ATGCCTGATA | 0.963 ± 0.029
GCTCGACCCT | 1.07 ± 0.039
GAGGGGGTTG | 1.01 ± 0.048
GGGCCTATAG | 0.9859 ± 0.0085
CTGAGTATGC | 1.05 ± 0.026
AGGGTGGGGT | 0.977 ± 0.043
CCAAGAGGAC | 1 ± 0.027
GTTGTGCATA | 1.02 ± 0.03
TTACTCGTCT | 1.08 ± 0.056
ACACGGGGTG | 1.018 ± 0.0018
AGTAAGGTTG | 0.961 ± 0.054
TTCGACGCTA | 1.33 ± 0.57
CGTGAGGGTG | 1.01 ± 0.079
GTATGGCGAC | 1.02 ± 0.011
TTGTTGGTAC | 1.15 ± 0.23
GATGACACGA | 1.033 ± 0.01
TTTTGGGAGT | 1 ± 0.026
TGCTATTATG | 0.988 ± 0.048
TTGGGAAGGT | 0.982 ± 0.049
